Experimental findings from the supplement of paper PMC10567573 are described below.

The labels stand for the following.
B1: MFF (parent)
chain: YTEGISQRMRVPEKLKVAPPNADL
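Further: lentivirally expressed fusions sorted by FACS into six bins by GFP to DsRed ratio, PSI derived from sequencing read proportions per bin multiplied by bin number.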

The variants in this series derive from B1. As to the kind of experiment: protein stability index of a GFP-peptide fusion (GPS, HEK-293T) (PSI 1-6); higher = more stable. The conditions noted are these: c terminus: a fixed tail appended.
On to YTEGISQRMRVPEKEKVAPPNADL [L15E], for which the protein stability index is 3.36. Turning to YTEGISQRMRVPEKTKVAPPNADL [L15T], the protein stability index is 2.71. YTEGISQRMRVPEKYKVAPPNADL [L15Y]: the protein stability index worked out at 3.12.

On to YTEGISQRMRVPEKNKVAPPNADL [L15N], for which the protein stability index was 2.99. On to YTEGISQRMRVPEKHKVAPPNADL [L15H], for which the protein stability index came to 2.91. Consider YTEGISQRMRVPEKFKVAPPNADL [L15F], for which the protein stability index worked out at 2.53. Take YTEGISQRMRVPEKSKVAPPNADL [L15S]: the protein stability index is 3.15.

For the variant YTEGISQRMRVPEKIKVAPPNADL [L15I], the protein stability index stood at 2.69.

As for YTEGISQRMRVPEKKKVAPPNADL [L15K], the protein stability index came out at 3.19. With YTEGISQRMRVPEKPKVAPPNADL [L15P] the figure was 3.05; with YTEGISQRMRVPEKDKVAPPNADL [L15D], 3.08; with YTEGISQRMRVPEKMKVAPPNADL [L15M], 2.59. For YTEGISQRMRVPEKGKVAPPNADL [L15G] the value was 3.38; for YTEGISQRMRVPEKRKVAPPNADL [L15R], 2.58; for YTEGISQRMRVPEKVKVAPPNADL [L15V], 3.09. For YTEGISQRMRVPEKQKVAPPNADL [L15Q], the protein stability index worked out at 3.06.

Regarding YTEGISQRMRVPEKWKVAPPNADL [L15W], the protein stability index stood at 2.51.

For YTEGISQRMRVPEKAKVAPPNADL [L15A], the protein stability index worked out at 3.15. Regarding YTEGISQRMRVPEKCKVAPPNADL [L15C], the protein stability index is 2.44. For the variant YTEGISQRMRVPEKLGVAPPNADL [K16G], the protein stability index is 3.27. For YTEGISQRMRVPEKLIVAPPNADL [K16I] the value was 3.23; for YTEGISQRMRVPEKLHVAPPNADL [K16H], 3.21. For YTEGISQRMRVPEKLDVAPPNADL [K16D] the value was 3.87; for YTEGISQRMRVPEKLFVAPPNADL [K16F], 2.8. With YTEGISQRMRVPEKLLVAPPNADL [K16L] the figure was 2.62. For YTEGISQRMRVPEKLSVAPPNADL [K16S], the protein stability index was 3.62. YTEGISQRMRVPEKLQVAPPNADL [K16Q]: the protein stability index was 2.67. For YTEGISQRMRVPEKLNVAPPNADL [K16N] the value was 3.33.

For the variant YTEGISQRMRVPEKLTVAPPNADL [K16T], the protein stability index turned out to be 3.16.

For the variant YTEGISQRMRVPEKLVVAPPNADL [K16V], the protein stability index was 2.9.

As to YTEGISQRMRVPEKLYVAPPNADL [K16Y], the protein stability index is 2.81. Regarding YTEGISQRMRVPEKLRVAPPNADL [K16R], the protein stability index turned out to be 2.34. As for YTEGISQRMRVPEKLPVAPPNADL [K16P], the protein stability index was 2.83.

YTEGISQRMRVPEKLCVAPPNADL [K16C]: the protein stability index was 2.81. For YTEGISQRMRVPEKLMVAPPNADL [K16M] the value was 2.77; for YTEGISQRMRVPEKLAVAPPNADL [K16A], 2.68; for YTEGISQRMRVPEKLWVAPPNADL [K16W], 2.49. With YTEGISQRMRVPEKLEVAPPNADL [K16E] the figure was 2.93.

For the variant YTEGISQRMRVPVKLKVAPPNADL [E13V], the protein stability index came out at 2.79. As for YTEGISQRMRVPKKLKVAPPNADL [E13K], the protein stability index came out at 2.2.

In the case of YTEGISQRMRVPDKLKVAPPNADL [E13D], the protein stability index was 2.86.

Take YTEGISQRMRVPMKLKVAPPNADL [E13M]: the protein stability index is 2.64. With YTEGISQRMRVPLKLKVAPPNADL [E13L] the figure was 2.33; with YTEGISQRMRVPFKLKVAPPNADL [E13F], 2.35; with YTEGISQRMRVPTKLKVAPPNADL [E13T], 2.57. Take YTEGISQRMRVPYKLKVAPPNADL [E13Y]: the protein stability index turned out to be 2.54. For YTEGISQRMRVPGKLKVAPPNADL [E13G] the value was 2.18; for YTEGISQRMRVPWKLKVAPPNADL [E13W], 2.16; for YTEGISQRMRVPPKLKVAPPNADL [E13P], 2.65. Take YTEGISQRMRVPHKLKVAPPNADL [E13H]: the protein stability index is 2.98. For the variant YTEGISQRMRVPQKLKVAPPNADL [E13Q], the protein stability index turned out to be 2.65. With YTEGISQRMRVPIKLKVAPPNADL [E13I] the figure was 2.49; with YTEGISQRMRVPCKLKVAPPNADL [E13C], 2.53. With YTEGISQRMRVPRKLKVAPPNADL [E13R] the figure was 2.9; with YTEGISQRMRVPNKLKVAPPNADL [E13N], 2.53; with YTEGISQRMRVPSKLKVAPPNADL [E13S], 3.18.

As to YTEGISQRMRVPEFLKVAPPNADL [K14F], the protein stability index is 2.96.

With YTEGISQRMRVPEMLKVAPPNADL [K14M], the protein stability index was 3.39. YTEGISQRMRVPEVLKVAPPNADL [K14V]: the protein stability index came out at 2.72. With YTEGISQRMRVPETLKVAPPNADL [K14T] the figure was 3.06; with YTEGISQRMRVPEELKVAPPNADL [K14E], 3.17.

Take YTEGISQRMRVPENLKVAPPNADL [K14N]: the protein stability index turned out to be 3.44. With YTEGISQRMRVPEHLKVAPPNADL [K14H], the protein stability index is 2.88. With YTEGISQRMRVPECLKVAPPNADL [K14C] the figure was 3.07. As to YTEGISQRMRVPEPLKVAPPNADL [K14P], the protein stability index was 3.32. As for YTEGISQRMRVPEYLKVAPPNADL [K14Y], the protein stability index came to 2.44. With YTEGISQRMRVPERLKVAPPNADL [K14R] the figure was 3.55. YTEGISQRMRVPEALKVAPPNADL [K14A]: the protein stability index is 3.06. For the variant YTEGISQRMRVPEWLKVAPPNADL [K14W], the protein stability index was 2.11. For YTEGISQRMRVPEDLKVAPPNADL [K14D] the value was 3.13; for YTEGISQRMRVPEQLKVAPPNADL [K14Q], 3.41.

Consider YTEGISQRMRVPESLKVAPPNADL [K14S], for which the protein stability index came out at 3.38. Consider YTEGISQRMRVPEGLKVAPPNADL [K14G], for which the protein stability index came out at 3.28. Regarding YTEGISQRMRVPELLKVAPPNADL [K14L], the protein stability index was found to be 2.87. Take YTEGISQRMRVPEILKVAPPNADL [K14I]: the protein stability index turned out to be 2.71. As for YTEGISQRMRVPEKLKCAPPNADL [V17C], the protein stability index turned out to be 2.18.

For the variant YTEGISQRMRVPEKLKYAPPNADL [V17Y], the protein stability index came to 2.3.

In the case of YTEGISQRMRVPEKLKTAPPNADL [V17T], the protein stability index was 2.89. For YTEGISQRMRVPEKLKLAPPNADL [V17L] the value was 2.88.

In the case of YTEGISQRMRVPEKLKRAPPNADL [V17R], the protein stability index turned out to be 3.22.

As to YTEGISQRMRVPEKLKGAPPNADL [V17G], the protein stability index is 2.65. Turning to YTEGISQRMRVPEKLKNAPPNADL [V17N], the protein stability index worked out at 2.85.

Take YTEGISQRMRVPEKLKPAPPNADL [V17P]: the protein stability index turned out to be 3.31. With YTEGISQRMRVPEKLKIAPPNADL [V17I] the figure was 2.54; with YTEGISQRMRVPEKLKHAPPNADL [V17H], 2.9; with YTEGISQRMRVPEKLKWAPPNADL [V17W], 2.35. Take YTEGISQRMRVPEKLKFAPPNADL [V17F]: the protein stability index came out at 2.6. For YTEGISQRMRVPEKLKDAPPNADL [V17D] the value was 3.18; for YTEGISQRMRVPEKLKAAPPNADL [V17A], 2.82; for YTEGISQRMRVPEKLKEAPPNADL [V17E], 3.25. In the case of YTEGISQRMRVPEKLKKAPPNADL [V17K], the protein stability index turned out to be 3.29. For YTEGISQRMRVPEKLKMAPPNADL [V17M] the value was 2.75. For YTEGISQRMRVPEKLKQAPPNADL [V17Q] the value was 2.95; for YTEGISQRMRVPEKLKSAPPNADL [V17S], 2.48.
